Measurements reported in patent publication US20230184787A1 (NORDIC BIOSCIENCE A S, published 2023).

T1: non-sense peptide YRDDLKKLLET (Homo sapiens)
T1 construct: also called NBH-225
T1 peptide: YRDDLKKLLET

T2: truncated peptide LGHPDTLNQ (Homo sapiens)
T2 construct: also called N-truncated shortened version
T2 peptide: LGHPDTLNQ

T3: elongated peptide VKLGHPDTLNQ (Homo sapiens)
T3 construct: also called N-extended elongated version
T3 peptide: VKLGHPDTLNQ

T4: full-length human calprotectin (heterodimer of S100A9 and S100A8) (Homo sapiens, UniProt P06702 1-114; P05109 1-93)
T4 construct: also called intact full-length human calprotectin; purified calprotectin
T4 sequence (looked up) 1: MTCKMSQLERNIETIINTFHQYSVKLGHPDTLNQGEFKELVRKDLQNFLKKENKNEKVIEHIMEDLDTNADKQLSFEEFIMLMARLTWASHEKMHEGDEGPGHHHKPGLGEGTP
T4 sequence (looked up) 2: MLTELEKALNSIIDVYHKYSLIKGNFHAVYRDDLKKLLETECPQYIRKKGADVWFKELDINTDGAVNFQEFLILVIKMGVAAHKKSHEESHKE

T5: human neutrophil elastase (human, UniProt P08246 30-247, limits assumed)
T5 construct: also called HNE
T5 sequence (looked up): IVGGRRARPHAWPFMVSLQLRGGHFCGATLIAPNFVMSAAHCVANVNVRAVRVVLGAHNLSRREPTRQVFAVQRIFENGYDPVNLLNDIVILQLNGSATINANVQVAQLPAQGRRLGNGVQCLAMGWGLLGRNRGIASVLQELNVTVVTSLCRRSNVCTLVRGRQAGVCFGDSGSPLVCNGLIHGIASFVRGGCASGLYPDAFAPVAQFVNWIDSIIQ

B1: selection peptide KLGHPDTLNQ (peptide)
peptide: KLGHPDTLNQ
notes: also called calibrator peptide
B2: CPa9-HNE antibody (antibody, mouse IgG1, kappa, V domains shown)
VH: QVQLQQSGPELVKPGASVKMSCKASGYTFTDHVINWVRQRTGQGLEWIGEIYPGSGSTYYNEKFKGKATLTADKSSNTAYMQLSSLTSEDSAVYFCAWFAYWGQGTLVTVSA
VL: DIVMTQSPSSLSVSAGEKVTMSCKSSQSLLNSGNQKNYLAWYQQKPGQPPKLLIYGASTRESGVPDRFTGSGSGTDFTLTISSVQAEDLAVYYCLNDHSYPYTFGGGTKLEIKR
notes: also called monoclonal antibody targeting CPa9-HNE

What was measured:
CPa9-HNE antibody = target: B2; test: competitive ELISA: standard (calibrator) peptide in solution competes with …-K-Biotin on streptavidin plates for the CPa9-HNE antibody; mean of the standard curves
[1] = target: T1, non-sense peptide YRDDLKKLLET; test: competitive ELISA (CPa9-HNE assay), peptide specificity test, FIG. 2B
Method: (§1) No. 11940279, Hvidovre, Denmark) were coated with a biotinylated antigen ([…]-K-Biotin (SEQ ID NO: 27)) by incubation with the biotinylated antigen for 30 minutes at room temperature. Unbound biotinylated coater antigen was discarded, and the wells were washed with washing buffer (25 mM TRIZMA, 50 mM NaCl, 0.036% Bronidox L5, 0.1% Tween 20) using a standardized ELISA plate washing machine (BioTek® Instruments, Microplate washer, ELx405 Select CW, Winooski, USA). Samples were diluted in incubation buffer containing 1% bovine serum albumin (Sigma Aldrich, cat. No. a-7906, 98 purity) to maintain protein stability and for blocking. Samples and controls were added to the wells and incubated with the primary monoclonal antibody against the HNE-generated neo-epitope (CPa9-HNE), at 20° C. for 1 hour and agitated at 300 rpm. Unbound primary antibody and sample were discarded, and the wells were washed with washing buffer. Subsequently, HRP conjugated AffiniPure Rabbit anti-mouse IgG secondary antibodies (Jackson cat. No 315-035-045) was added to the wells and incubated for 1 hour at 20° C. Unbound secondary antibody was discarded by washing the wells in washing buffer. Chemiluminescence substrate (Roche Diagnostic's cat. No. 11582950001) was added to the well (100 μl/well), and the plates were incubated for 3 minutes at room temperature before reading the plates. Finally, an ELISA reader (VersaMAX; Molecular Devices, Wokingham Berkshire, UK) was used to quantify the relative light units (RLU) emitted from the plates […]. A standard curve was plotted using a 4-parametric mathematical fit model.
(§2) A monoclonal antibody (also referred to herein as the CPa9-HNE antibody) targeting CPa9-HNE (the HNE-generated N-terminus neo-epitope of NBH-222) was developed and used in an ELISA protocol as described above (also referred to hereinafter as the CPa9-HNE assay), and the specificity of this antibody when used in this immunoassay was tested against the selection peptide and the elongated peptide, truncated peptide and non-sense peptide (having the sequences set out in Table 1).

[2] = target: B1; test: as above
Method: as §1, §2

[3] = target: T2, truncated peptide LGHPDTLNQ; test: as above
Method: as §1, §2

[4] = target: T3, elongated peptide VKLGHPDTLNQ; test: as above
Method: as §1, §2

[5] = target: T4, full-length human calprotectin …; test: competitive ELISA (CPa9-HNE assay) on in vitro cleavage samples and controls, FIG. 2C
Method: (§3) Samples were diluted in incubation buffer containing 1% bovine serum albumin (Sigma Aldrich, cat. No. a-7906, 98 purity) to maintain protein stability and for blocking. Samples and controls were added to the wells and incubated with the primary monoclonal antibody against the HNE-generated neo-epitope (CPa9-HNE), at 20° C. for 1 hour and agitated at 300 rpm. Unbound primary antibody and sample were discarded, and the wells were washed with washing buffer. Subsequently, HRP conjugated AffiniPure Rabbit anti-mouse IgG secondary antibodies (Jackson cat. No 315-035-045) was added to the wells and incubated for 1 hour at 20° C. Unbound secondary antibody was discarded by washing the wells in washing buffer. Chemiluminescence substrate (Roche Diagnostic's cat. No. 11582950001) was added to the well (100 μl/well), and the plates were incubated for 3 minutes at room temperature before reading the plates. Finally, an ELISA reader (VersaMAX; Molecular Devices, Wokingham Berkshire, UK) was used to quantify the relative light units (RLU) emitted from the plates […]. A standard curve was plotted using a 4-parametric mathematical fit model. […]

[6] = target: T5, human neutrophil elastase; test: as above
Method: as §3

| IC50 (CPa9-HNE antibody) [µg/mL] | binding result [1] | binding result [2] | binding result [3] | binding result [4] | binding result [5] | binding result [6] | Binder |
| --- | --- | --- | --- | --- | --- | --- | --- |
| 0.0783 | – | – | – | – | – | – | B1 |
| – | no binding | binds | no binding | no binding | no binding | no binding | B2 |
